The values below are quoted from earlier work in paper PMC7460888.

The target in this series is SARS-CoV-2 spike RBD RBD (SARS-CoV-2) (UniProt P0DTC2).

A word on the Kd: it is the equilibrium constant for the complex coming apart. On to SBP1 (ACE2 alpha1 helix peptide), for which the Kd is 0.047 µM.
